The supplement of paper PMC10065799, “High-throughput profiling of sequence recognition by tyrosine kinases and SH2 domains using bacterial peptide display” (eLife, 2023)

Key:
[1] = system: AncSZ; assay: phosphorylation enrichment, bacterial display (enrichment ratio); higher = better substrate or ligand; peptides without Tyr show the background
[2] = biological target: EPHB1 (UniProt P54762); assay: as above
[3] = biological target: EPHB2 (UniProt P29323); assay: as above
[4] = biological target: FGFR1 (UniProt P11362); assay: as above
[5] = biological target: FGFR3 (UniProt P22607); assay: as above
[6] = system: Fer (mouse); assay: as above
[7] = biological target: Fes (UniProt P07332); assay: as above
[8] = biological target: Fyn (UniProt P06241); assay: as above
[9] = biological target: Hck (UniProt P08631); assay: as above
[10] = biological target: Jak2 (UniProt O60674); assay: as above
[11] = biological target: MERTK (UniProt Q12866); assay: as above
[12] = system: c-Abl (mouse); assay: as above
[13] = system: c-Src; assay: as above
[14] = biological target: Grb2 SH2 (UniProt P62993); assay: SH2 binding enrichment of the phosphorylated peptide, bacterial display (enrichment ratio); higher = better substrate or ligand; peptides without Tyr show the background
[15] = biological target: SHP2-C SH2; assay: as above
[16] = biological target: c-Src SH2; assay: as above
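For SH2 binding enrichment of the phosphorylated peptide, bacterial display in this document: peptide library displayed on the E. coli surface as eCPX fusions, selected cells deep-sequenced, score is each peptide's frequency after selection divided by its frequency in the input.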
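For phosphorylation enrichment, bacterial display in this document: 11-residue human phosphosite peptides and single-mutation variants displayed on the E. coli surface, counted by deep sequencing, each peptide's frequency after selection divided by its frequency in the unselected input library; frequency after pTyr selection over input frequency; kinase dosed for 20-30% of maximal phosphorylation in three min.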

Hck, sequence (P08631 whole entry, looked up): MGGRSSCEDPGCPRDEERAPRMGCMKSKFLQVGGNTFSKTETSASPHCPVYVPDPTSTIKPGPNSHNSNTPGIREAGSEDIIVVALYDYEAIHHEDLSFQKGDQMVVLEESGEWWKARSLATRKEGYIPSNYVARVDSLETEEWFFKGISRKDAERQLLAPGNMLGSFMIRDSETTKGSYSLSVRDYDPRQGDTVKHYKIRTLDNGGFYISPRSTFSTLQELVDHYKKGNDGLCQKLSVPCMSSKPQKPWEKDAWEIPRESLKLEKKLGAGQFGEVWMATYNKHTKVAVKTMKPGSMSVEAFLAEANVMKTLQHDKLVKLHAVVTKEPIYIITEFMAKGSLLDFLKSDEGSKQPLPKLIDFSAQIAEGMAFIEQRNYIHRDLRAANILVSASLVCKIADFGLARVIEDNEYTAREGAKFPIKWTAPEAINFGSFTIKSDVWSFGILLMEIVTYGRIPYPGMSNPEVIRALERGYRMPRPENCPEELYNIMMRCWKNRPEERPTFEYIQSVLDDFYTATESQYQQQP
FGFR1, sequence (P11362 whole entry, looked up): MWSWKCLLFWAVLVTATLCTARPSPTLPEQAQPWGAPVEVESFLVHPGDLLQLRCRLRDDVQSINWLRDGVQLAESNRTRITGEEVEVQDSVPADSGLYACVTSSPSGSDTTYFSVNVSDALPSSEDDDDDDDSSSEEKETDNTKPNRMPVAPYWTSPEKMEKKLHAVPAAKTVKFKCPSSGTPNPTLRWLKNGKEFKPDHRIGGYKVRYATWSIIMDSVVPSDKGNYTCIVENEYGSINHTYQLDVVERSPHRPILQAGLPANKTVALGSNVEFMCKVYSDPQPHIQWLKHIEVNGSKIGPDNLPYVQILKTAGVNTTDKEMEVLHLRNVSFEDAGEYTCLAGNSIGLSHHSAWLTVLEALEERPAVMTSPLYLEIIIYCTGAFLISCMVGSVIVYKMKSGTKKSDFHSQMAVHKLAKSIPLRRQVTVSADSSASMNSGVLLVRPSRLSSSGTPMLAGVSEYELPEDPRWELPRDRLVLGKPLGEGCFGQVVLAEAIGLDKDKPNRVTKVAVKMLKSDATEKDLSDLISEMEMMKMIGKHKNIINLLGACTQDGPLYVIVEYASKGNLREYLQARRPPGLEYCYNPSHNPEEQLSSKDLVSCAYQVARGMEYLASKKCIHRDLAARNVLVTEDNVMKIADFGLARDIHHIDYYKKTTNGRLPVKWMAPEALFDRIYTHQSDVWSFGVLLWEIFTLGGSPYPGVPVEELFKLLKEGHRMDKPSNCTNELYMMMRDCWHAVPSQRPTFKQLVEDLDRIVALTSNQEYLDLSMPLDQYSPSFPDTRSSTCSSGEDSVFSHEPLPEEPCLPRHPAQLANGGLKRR
FGFR3, sequence (P22607 whole entry, looked up): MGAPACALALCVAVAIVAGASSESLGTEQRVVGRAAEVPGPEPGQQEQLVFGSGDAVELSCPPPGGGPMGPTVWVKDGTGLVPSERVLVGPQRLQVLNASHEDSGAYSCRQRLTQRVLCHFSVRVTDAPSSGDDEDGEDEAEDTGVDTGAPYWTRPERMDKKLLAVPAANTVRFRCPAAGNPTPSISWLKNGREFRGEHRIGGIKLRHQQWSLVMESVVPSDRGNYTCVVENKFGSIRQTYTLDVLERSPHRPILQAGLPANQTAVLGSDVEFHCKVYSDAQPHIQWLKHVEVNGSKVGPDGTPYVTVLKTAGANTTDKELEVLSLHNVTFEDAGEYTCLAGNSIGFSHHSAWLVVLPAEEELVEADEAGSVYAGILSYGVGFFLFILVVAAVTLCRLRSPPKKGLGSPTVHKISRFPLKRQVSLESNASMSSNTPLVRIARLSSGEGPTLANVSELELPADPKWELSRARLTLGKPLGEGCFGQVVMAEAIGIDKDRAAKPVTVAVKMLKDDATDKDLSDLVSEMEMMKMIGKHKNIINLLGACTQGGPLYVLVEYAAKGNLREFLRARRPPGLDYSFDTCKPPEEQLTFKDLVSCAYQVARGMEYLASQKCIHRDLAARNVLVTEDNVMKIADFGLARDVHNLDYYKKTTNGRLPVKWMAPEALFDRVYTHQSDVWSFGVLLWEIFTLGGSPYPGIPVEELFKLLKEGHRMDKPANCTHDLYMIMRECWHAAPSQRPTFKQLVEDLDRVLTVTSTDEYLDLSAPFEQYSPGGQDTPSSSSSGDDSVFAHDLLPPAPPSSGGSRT
MERTK, sequence (Q12866 whole entry, looked up): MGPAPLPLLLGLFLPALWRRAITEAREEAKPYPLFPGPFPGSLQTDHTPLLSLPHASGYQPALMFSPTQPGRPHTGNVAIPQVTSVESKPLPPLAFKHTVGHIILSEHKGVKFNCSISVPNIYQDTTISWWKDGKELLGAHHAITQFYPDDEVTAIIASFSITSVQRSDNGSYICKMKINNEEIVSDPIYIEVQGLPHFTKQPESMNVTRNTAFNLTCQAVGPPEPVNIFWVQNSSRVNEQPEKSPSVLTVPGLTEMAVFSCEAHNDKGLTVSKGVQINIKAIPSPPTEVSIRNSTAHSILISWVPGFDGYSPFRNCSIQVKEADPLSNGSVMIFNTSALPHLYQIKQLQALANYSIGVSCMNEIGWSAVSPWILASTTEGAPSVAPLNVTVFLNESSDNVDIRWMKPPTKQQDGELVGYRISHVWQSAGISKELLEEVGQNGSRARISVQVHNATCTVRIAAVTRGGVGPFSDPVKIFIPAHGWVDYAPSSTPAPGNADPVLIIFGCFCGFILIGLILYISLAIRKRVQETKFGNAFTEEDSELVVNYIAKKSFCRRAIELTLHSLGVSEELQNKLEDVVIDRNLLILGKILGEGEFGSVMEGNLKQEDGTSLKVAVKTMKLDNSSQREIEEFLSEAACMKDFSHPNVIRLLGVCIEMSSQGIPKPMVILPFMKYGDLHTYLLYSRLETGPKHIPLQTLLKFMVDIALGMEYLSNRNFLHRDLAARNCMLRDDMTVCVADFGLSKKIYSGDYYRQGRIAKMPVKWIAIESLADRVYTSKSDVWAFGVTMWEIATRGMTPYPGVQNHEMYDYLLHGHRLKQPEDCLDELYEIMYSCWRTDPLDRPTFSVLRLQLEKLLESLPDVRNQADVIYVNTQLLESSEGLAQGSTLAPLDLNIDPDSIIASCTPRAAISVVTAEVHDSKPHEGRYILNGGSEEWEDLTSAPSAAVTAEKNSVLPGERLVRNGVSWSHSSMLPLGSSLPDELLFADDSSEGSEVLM
Fes, sequence (P07332 whole entry, looked up): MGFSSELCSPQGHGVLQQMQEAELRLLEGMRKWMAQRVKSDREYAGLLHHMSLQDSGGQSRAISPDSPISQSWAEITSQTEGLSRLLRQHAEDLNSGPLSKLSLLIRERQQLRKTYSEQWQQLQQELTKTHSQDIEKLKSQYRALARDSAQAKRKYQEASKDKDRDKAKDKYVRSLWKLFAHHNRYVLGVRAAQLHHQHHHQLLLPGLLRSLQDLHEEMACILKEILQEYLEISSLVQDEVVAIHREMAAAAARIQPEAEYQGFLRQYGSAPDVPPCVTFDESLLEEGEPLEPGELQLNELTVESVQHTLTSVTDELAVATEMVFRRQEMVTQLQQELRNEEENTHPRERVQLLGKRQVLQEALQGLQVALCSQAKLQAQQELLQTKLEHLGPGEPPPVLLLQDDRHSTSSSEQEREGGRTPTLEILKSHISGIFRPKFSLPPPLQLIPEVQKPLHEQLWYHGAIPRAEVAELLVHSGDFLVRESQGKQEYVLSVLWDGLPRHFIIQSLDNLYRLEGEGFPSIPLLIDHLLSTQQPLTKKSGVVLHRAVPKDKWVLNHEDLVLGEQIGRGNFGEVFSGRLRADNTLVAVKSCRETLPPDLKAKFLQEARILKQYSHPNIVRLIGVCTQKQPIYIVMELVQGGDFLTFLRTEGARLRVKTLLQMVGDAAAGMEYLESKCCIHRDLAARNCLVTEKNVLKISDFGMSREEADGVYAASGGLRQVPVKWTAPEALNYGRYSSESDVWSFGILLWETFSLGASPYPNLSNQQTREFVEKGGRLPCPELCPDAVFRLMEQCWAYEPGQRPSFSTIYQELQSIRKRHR
EPHB2, sequence (P29323 whole entry, looked up): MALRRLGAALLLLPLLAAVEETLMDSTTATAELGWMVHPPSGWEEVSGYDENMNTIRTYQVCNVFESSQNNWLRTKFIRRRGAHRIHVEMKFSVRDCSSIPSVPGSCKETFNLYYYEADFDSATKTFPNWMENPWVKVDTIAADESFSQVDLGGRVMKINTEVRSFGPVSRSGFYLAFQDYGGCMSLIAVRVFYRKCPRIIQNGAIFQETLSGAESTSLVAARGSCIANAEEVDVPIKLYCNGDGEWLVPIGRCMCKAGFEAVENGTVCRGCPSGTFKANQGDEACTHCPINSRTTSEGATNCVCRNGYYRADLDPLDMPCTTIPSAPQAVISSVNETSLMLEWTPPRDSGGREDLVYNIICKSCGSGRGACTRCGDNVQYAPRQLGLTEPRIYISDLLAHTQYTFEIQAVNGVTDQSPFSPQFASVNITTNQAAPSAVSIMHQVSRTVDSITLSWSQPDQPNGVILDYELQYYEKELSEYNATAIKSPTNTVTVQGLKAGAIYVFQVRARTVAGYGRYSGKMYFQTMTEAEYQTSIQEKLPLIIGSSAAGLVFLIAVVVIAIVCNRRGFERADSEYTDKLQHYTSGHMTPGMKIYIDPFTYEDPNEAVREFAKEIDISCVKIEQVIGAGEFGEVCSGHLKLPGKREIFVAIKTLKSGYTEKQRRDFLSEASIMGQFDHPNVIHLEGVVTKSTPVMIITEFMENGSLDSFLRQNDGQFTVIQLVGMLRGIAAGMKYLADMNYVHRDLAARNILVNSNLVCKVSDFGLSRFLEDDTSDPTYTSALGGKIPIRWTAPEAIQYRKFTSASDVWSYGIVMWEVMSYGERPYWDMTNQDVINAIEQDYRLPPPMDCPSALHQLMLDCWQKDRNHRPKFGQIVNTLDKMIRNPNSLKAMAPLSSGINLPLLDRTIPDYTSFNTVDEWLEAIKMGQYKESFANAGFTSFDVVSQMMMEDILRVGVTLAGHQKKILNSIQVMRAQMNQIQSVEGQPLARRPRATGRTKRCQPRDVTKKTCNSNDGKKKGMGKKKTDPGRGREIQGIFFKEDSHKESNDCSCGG

Row | SH2 binding enrichment [14] | SH2 binding enrichment [15] | SH2 binding enrichment [16] | Sequence | phosphorylation enrichment [1] | phosphorylation enrichment [2] | phosphorylation enrichment [3] | phosphorylation enrichment [4] | phosphorylation enrichment [5] | phosphorylation enrichment [6] | phosphorylation enrichment [7] | phosphorylation enrichment [8] | phosphorylation enrichment [9] | phosphorylation enrichment [10] | phosphorylation enrichment [11] | phosphorylation enrichment [12] | phosphorylation enrichment [13]
1 | 1.62 | 1.84 | 0.557 | LNNIIYRLERA [CUX2_Y1470_V1472L] | 1.67 | 1.24 | 1.37 | 0.907 | 1.19 | 0.812 | 1.37 | 2.59 | 1.01 | 1.27 | 1.1 | 1.31 | 3.45
2 | 1.15 | 0.942 | 0.691 | LQRCKNSHMEP [TEX45_Y434_Y434N] | 0.599 | 0.939 | 0.848 | 0.958 | 0.729 | 0.782 | 0.865 | 0.956 | 0.741 | 0.9 | 0.809 | 0.641 | 0.747
3 | 0.82 | 0.606 | 6.76 | LRKQDYQEILD [SLC35G2_Y403] | 0.995 | 0.632 | 0.379 | 0.629 | 0.708 | 0.434 | 1.17 | 0.529 | 0.47 | 0.999 | 0.364 | 0.629 | 0.468
4 | 0.818 | 1.14 | 0.914 | LVQAEYWRDPI [PPT1_Y185_H187R] | 1.55 | 0.891 | 0.931 | 1.71 | 1.22 | 0.693 | 1.72 | 0.961 | 0.423 | 1.46 | 0.614 | 0.816 | 0.691

The remaining lines, values behind:

Row | Sequence | SH2 binding enrichment [14] | SH2 binding enrichment [15] | SH2 binding enrichment [16] | phosphorylation enrichment [1] | phosphorylation enrichment [2] | phosphorylation enrichment [3] | phosphorylation enrichment [4] | phosphorylation enrichment [5] | phosphorylation enrichment [6] | phosphorylation enrichment [7] | phosphorylation enrichment [8] | phosphorylation enrichment [9] | phosphorylation enrichment [10] | phosphorylation enrichment [11] | phosphorylation enrichment [12] | phosphorylation enrichment [13]
5 | LPPGTYPSDFA [UNC5B_Y511] | 0.84 | 0.714 | 0.369 | 0.744 | 0.482 | 0.412 | 0.543 | 0.595 | 0.5 | 0.96 | 0.451 | 0.461 | 0.791 | 0.424 | 0.565 | 0.422
6 | LQRVQYDLQKA [DSP_Y1512] | 0.948 | 0.831 | 0.565 | 0.872 | 1.3 | 0.907 | 0.897 | 0.816 | 0.58 | 0.788 | 0.582 | 0.397 | 0.642 | 0.646 | 0.496 | 0.409
7 | LRFDSYWSFCN [SLC20A2_Y433_S434W_YF] | 1.01 | 0.945 | 0.726 | 1.25 | 1.04 | 0.774 | 1.64 | 1.4 | 0.506 | 1.33 | 2.12 | 2.1 | 1.49 | 0.572 | 0.781 | 2.72
8 | LRRQDYQEILD [SLC35G2_Y403_K400R] | 0.78 | 0.767 | 3.37 | 1.35 | 0.838 | 0.898 | 0.727 | 0.783 | 0.509 | 1.58 | 0.492 | 0.352 | 1.06 | 0.622 | 0.621 | 0.376
9 | LSSEMYVKSFT [F5_Y2149_YF] | 0.676 | 0.708 | 0.364 | 1.35 | 0.609 | 0.788 | 1.15 | 0.975 | 0.837 | 1.27 | 0.647 | 0.933 | 0.965 | 0.641 | 0.684 | 0.307
10 | LSVEIYDRREY [ITGB7_Y753] | 0.602 | 0.437 | 0.523 | 1.52 | 0.669 | 0.816 | 0.618 | 0.869 | 0.587 | 1.4 | 0.675 | 2.23 | 0.965 | 0.581 | 0.801 | 0.765
11 | LTQRTYMSENN [GPAA1_Y49_A54N] | 0.709 | 0.676 | 0.442 | 1.11 | 0.783 | 0.879 | 1.13 | 1.09 | 0.867 | 1.46 | 0.479 | 0.703 | 0.67 | 0.87 | 1.01 | 0.549
12 | LVFIKYLPEWT [PSEN1_Y240] | 1.6 | 1.43 | 0.902 | 1.78 | 0.898 | 0.734 | 0.615 | 1.27 | 0.744 | 1.92 | 0.361 | 0.555 | 1.97 | 0.769 | 1.11 | 0.4
13 | MAHDRYAAICS [OR8H2_Y123] | 0.9 | 1.91 | 5.4 | 0.547 | 0.41 | 0.444 | 0.494 | 0.439 | 0.372 | 0.646 | 0.437 | 0.48 | 0.44 | 0.424 | 0.396 | 0.424
14 | MALDRYVASCK [OR2B11_Y127_I130S] | 0.799 | 0.698 | 0.579 | 0.649 | 0.465 | 0.593 | 0.397 | 0.569 | 0.475 | 0.846 | 0.421 | 0.435 | 0.667 | 0.385 | 0.592 | 0.436
